# ± gives the standard deviation of the averaged measurements.
# Tested on: ATP
# Assay: switch fluorescence ratio, 500 uM ATP over buffer (Cy3 cluster intensity, sum of 5 cycles each) (fold (ratio)); higher = stronger signal-on switching upon ATP binding; sequences stand for … in TCGTCGGCAGCGTCAGATGTGTATAAGAGACAGTTTTTTTTTTTTTTTTTTTTTTTTT…TC
# Conditions: aptamer strand: ATP DNA aptamer (quencher-CACCTGGGGGAGTATTGCGGAGGAAGG + anchor), 100 nM annealed; ATP concentration: 500 uM
# Outline: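 The quencher-labelled ATP aptamer, at 100 nM, was annealed to Cy3-labelled switching-strand clusters on a modified Illumina MiSeq flow-cell. The clusters were imaged in selection buffer, then after 15 min with 500 uM ATP at 22 °C, and this buffer/ATP cycle ran five times with NaOH stripping and re-annealing between runs. Per-cluster fluorescence ratios, summed target-cycle over summed buffer-cycle Cy3 intensity, were averaged per switch-domain sequence. Clusters outside 100-1000 RFU were excluded.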
# 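Also: ATP exposure 15 min at 22 °C before imaging.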
sequence,measurement,value
CGATGGTTGG,switch fluorescence ratio,1.03 ± 0.07
CGATGTTCAC,switch fluorescence ratio,1.05 ± 0.011
CGATGTTGAG,switch fluorescence ratio,1.002 ± 0.01
CGATTAAAGT,switch fluorescence ratio,0.997 ± 0.031
CGATTCTTAA,switch fluorescence ratio,0.996 ± 0.011
CGATTGAGCA,switch fluorescence ratio,0.994 ± 0.031
CGATTGCAG,switch fluorescence ratio,1.0118 ± 0.00044
CGATTGGTGT,switch fluorescence ratio,1.02 ± 0.021
CGATTGTTGA,switch fluorescence ratio,1.01 ± 0.037
CGATTTAATA,switch fluorescence ratio,1.01 ± 0.051
CGATTTAGCG,switch fluorescence ratio,0.9773 ± 0.009
CGATTTCAGG,switch fluorescence ratio,1.02 ± 0.036
CGATTTGGCA,switch fluorescence ratio,1.01 ± 0.0076
CGATTTGTGT,switch fluorescence ratio,0.984 ± 0.011
CGATTTTCGT,switch fluorescence ratio,0.998 ± 0.044
CGATTTTGAG,switch fluorescence ratio,0.9768 ± 0.0076
CGCAAAGGGC,switch fluorescence ratio,2.12 ± 1.4
CGCAACTATG,switch fluorescence ratio,1.56 ± 0.026
CGCAATTAGG,switch fluorescence ratio,3.97 ± 0.46
CGCACAGCAC,switch fluorescence ratio,1.59 ± 0.023
CGCAGCCCAG,switch fluorescence ratio,1.58 ± 0.086
CGCAGGGGGT,switch fluorescence ratio,1.01 ± 0.039
CGCAGTAGTG,switch fluorescence ratio,1.16 ± 0.032
CGCATAGAAA,switch fluorescence ratio,1.02 ± 0.045
CGCATAGGCC,switch fluorescence ratio,1.77 ± 0.2
CGCATCAACG,switch fluorescence ratio,1.18 ± 0.087
CGCATCTGGG,switch fluorescence ratio,1.09 ± 0.017
CGCATGGGGG,switch fluorescence ratio,1.08 ± 0.011
CGCATGTCTT,switch fluorescence ratio,1.07 ± 0.0029
CGCATTTAGA,switch fluorescence ratio,1.04 ± 0.047
CGCATTTGCT,switch fluorescence ratio,1.15 ± 0.07
CGCCATTGTT,switch fluorescence ratio,1.01 ± 0.011
CGCCCCGGCC,switch fluorescence ratio,1.06 ± 0.097
CGCCCCTTGC,switch fluorescence ratio,1.17 ± 0.031
CGCCCTCTCC,switch fluorescence ratio,2.18 ± 0.23
CGCCGAATCT,switch fluorescence ratio,0.961 ± 0.042
CGCCGGCACT,switch fluorescence ratio,0.992 ± 0.027
CGCCGGGAGA,switch fluorescence ratio,1.05 ± 0.036
CGCCGGGGGA,switch fluorescence ratio,1.05 ± 0.036
CGCCGGGGGG,switch fluorescence ratio,1.04 ± 0.046
CGCCTCGTAA,switch fluorescence ratio,1.191 ± 0.01
CGCCTTGGTT,switch fluorescence ratio,1.02 ± 0.013
CGCCTTTTAT,switch fluorescence ratio,0.98204 ± 0.00038
CGCGACGAGT,switch fluorescence ratio,0.9823 ± 0.0053
CGCGAGGGTT,switch fluorescence ratio,1.008 ± 0.007
CGCGATATGG,switch fluorescence ratio,1.49 ± 0.17
CGCGATTTAA,switch fluorescence ratio,1.056 ± 0.0088
CGCGCAGTCG,switch fluorescence ratio,1.032 ± 0.003
CGCGCTGACT,switch fluorescence ratio,1.05 ± 0.017
CGCGGAGATG,switch fluorescence ratio,1.01 ± 0.035
CGCGGAGGGA,switch fluorescence ratio,1.02 ± 0.0082
CGCGGCGGTC,switch fluorescence ratio,1.02 ± 0.014
CGCGGCGTTC,switch fluorescence ratio,1.023 ± 0.0057
CGCGGGAACA,switch fluorescence ratio,1.022 ± 0.005
CGCGGGACTT,switch fluorescence ratio,2.01 ± 1.4
CGCGGGAGTA,switch fluorescence ratio,1.02 ± 0.018
CGCGGGGGTT,switch fluorescence ratio,1.03 ± 0.035
CGCGGGGTAA,switch fluorescence ratio,1.04 ± 0.011
CGCGGGTTGG,switch fluorescence ratio,1.02 ± 0.017
CGCGGGTTTT,switch fluorescence ratio,1.0416 ± 0.00069
CGCGGTCATA,switch fluorescence ratio,1.023 ± 0.01
CGCGTCCGTC,switch fluorescence ratio,1.03 ± 0.056
CGCGTGGATC,switch fluorescence ratio,1.06 ± 0.047
CGCGTGGGGC,switch fluorescence ratio,1.06 ± 0.015
CGCGTGTGTG,switch fluorescence ratio,1.02 ± 0.038
CGCGTTAGGG,switch fluorescence ratio,1.03 ± 0.011
CGCGTTCCGT,switch fluorescence ratio,1.03 ± 0.019
CGCTAAAGTG,switch fluorescence ratio,1.06 ± 0.086
CGCTACTATT,switch fluorescence ratio,1.12 ± 0.087
CGCTAGACAC,switch fluorescence ratio,1.49 ± 0.054
CGCTAGGGAA,switch fluorescence ratio,1.03 ± 0.045
CGCTAGGGTA,switch fluorescence ratio,1.04 ± 0.036
CGCTATATCG,switch fluorescence ratio,1.09 ± 0.081
CGCTATGATG,switch fluorescence ratio,0.984 ± 0.028
CGCTATTGGG,switch fluorescence ratio,1.046 ± 0.0086
CGCTGAGCAC,switch fluorescence ratio,1.18 ± 0.059
CGCTGAGGTA,switch fluorescence ratio,1 ± 0.03
CGCTGAGTAT,switch fluorescence ratio,0.995 ± 0.021
CGCTGATGCT,switch fluorescence ratio,1.0852 ± 0.00031
CGCTGATTAG,switch fluorescence ratio,1.041 ± 0.0092
CGCTGCACGG,switch fluorescence ratio,1.07 ± 0.038
CGCTGCTGGT,switch fluorescence ratio,0.998 ± 0.031
CGCTGGAACT,switch fluorescence ratio,1.0166 ± 0.00022
CGCTGGAGGG,switch fluorescence ratio,1.02 ± 0.093
CGCTGGGGGT,switch fluorescence ratio,1.16 ± 0.2
CGCTGTGGAA,switch fluorescence ratio,1.04 ± 0.044
CGCTGTGGAG,switch fluorescence ratio,1.01 ± 0.012
CGCTGTGGGA,switch fluorescence ratio,0.973 ± 0.053
CGCTTAAAAA,switch fluorescence ratio,1.02 ± 0.079
CGCTTCGGGG,switch fluorescence ratio,0.9735 ± 0.0082
CGCTTGAGTC,switch fluorescence ratio,1.025 ± 0.0062
CGCTTTACCG,switch fluorescence ratio,1 ± 0.051
CGCTTTATGA,switch fluorescence ratio,1.07 ± 0.024
CGCTTTATGT,switch fluorescence ratio,1.06 ± 0.18
CGCTTTCACC,switch fluorescence ratio,1.218 ± 0.0019
CGCTTTTTTT,switch fluorescence ratio,1.01 ± 0.025
CGGAAAAAAG,switch fluorescence ratio,1.018 ± 0.007
CGGAAACTAG,switch fluorescence ratio,1.022 ± 0.0038
CGGAAATAAA,switch fluorescence ratio,0.968 ± 0.025
CGGAACAATG,switch fluorescence ratio,1.3945 ± 0.00059
CGGAACGTGC,switch fluorescence ratio,1.04 ± 0.045
CGGAAGATAT,switch fluorescence ratio,1.039 ± 0.00018
CGGAAGGCCA,switch fluorescence ratio,0.9836 ± 0.0044
CGGAAGTGCC,switch fluorescence ratio,1.016 ± 0.0014
CGGAAGTTGA,switch fluorescence ratio,1.02 ± 0.067
CGGACATGGA,switch fluorescence ratio,1.011 ± 0.0084
CGGACCATAT,switch fluorescence ratio,1.11 ± 0.017
CGGACCATTC,switch fluorescence ratio,1.27 ± 0.032
CGGACTAACG,switch fluorescence ratio,1.08 ± 0.053
CGGACTTTG,switch fluorescence ratio,0.999 ± 0.026
CGGACTTTTC,switch fluorescence ratio,1.042 ± 0.0018
CGGAGCAGTT,switch fluorescence ratio,2.46 ± 0.41
CGGAGGATGC,switch fluorescence ratio,1.31 ± 0.019
CGGAGGGAAT,switch fluorescence ratio,2.91 ± 2.3
CGGAGGGGGA,switch fluorescence ratio,0.973 ± 0.019
CGGAGGTTTG,switch fluorescence ratio,1.39 ± 0.62
CGGAGGTTTT,switch fluorescence ratio,0.993 ± 0.049
CGGAGTAAGA,switch fluorescence ratio,2.53 ± 0.15
CGGAGTACGG,switch fluorescence ratio,1.06 ± 0.075
CGGAGTCCGG,switch fluorescence ratio,1.04 ± 0.059
CGGAGTGGTT,switch fluorescence ratio,1 ± 0.017
CGGAGTTAAT,switch fluorescence ratio,1.66 ± 0.048
CGGATAGAGC,switch fluorescence ratio,0.9951 ± 0.0085
CGGATAGTGG,switch fluorescence ratio,0.994 ± 0.014
CGGATCGTGG,switch fluorescence ratio,0.987 ± 0.021
CGGATCGTTG,switch fluorescence ratio,0.9655 ± 0.0084
CGGATCTTTG,switch fluorescence ratio,0.977 ± 0.0033
CGGATGAGGG,switch fluorescence ratio,1.01 ± 0.044
CGGATGAGTA,switch fluorescence ratio,0.988 ± 0.029
CGGATGGGGA,switch fluorescence ratio,0.993 ± 0.028
CGGATGGGGT,switch fluorescence ratio,0.973 ± 0.038
CGGATGTAAC,switch fluorescence ratio,1.02 ± 0.024
CGGATGTGCA,switch fluorescence ratio,0.981 ± 0.018
CGGATTAAAC,switch fluorescence ratio,1.04 ± 0.022
CGGATTTATA,switch fluorescence ratio,0.979 ± 0.019
CGGCAATGGG,switch fluorescence ratio,1.77 ± 0.15
CGGCACAATA,switch fluorescence ratio,1.78 ± 0.041
CGGCACAGCC,switch fluorescence ratio,1.05 ± 0.057
CGGCACCCGT,switch fluorescence ratio,0.9653 ± 0.0078
CGGCAGGCAG,switch fluorescence ratio,1.04 ± 0.13
CGGCAGGGGT,switch fluorescence ratio,1.11 ± 0.064
CGGCATTTTT,switch fluorescence ratio,1.03 ± 0.036
CGGCCCGCCC,switch fluorescence ratio,1.27 ± 0.35
CGGCCGGTTG,switch fluorescence ratio,1 ± 0.019
CGGCCTGGCG,switch fluorescence ratio,0.969 ± 0.016
CGGCGAAGAT,switch fluorescence ratio,1.01 ± 0.025
CGGCGCATTA,switch fluorescence ratio,2.86 ± 0.55
CGGCGCGCTG,switch fluorescence ratio,0.997 ± 0.034
CGGCGCTAGG,switch fluorescence ratio,1.05 ± 0.045
CGGCGCTTCA,switch fluorescence ratio,1.063 ± 0.0061
CGGCGCTTGG,switch fluorescence ratio,1.09 ± 0.035
CGGCGGAACG,switch fluorescence ratio,0.966 ± 0.031
CGGCGGATTC,switch fluorescence ratio,1.03 ± 0.019
